Here are results for 51 variants from the RNAGym collection of RNA variant scans (doi:10.1101/gr.219683.116).

The chains are these.
B1: mRNA-splicing (parent)
chain: AGUUGCUGCUGGGAGCUCCAGCACAGUGAAAUGGACAGAAGGGCAGAGCAA

The data set covers variants of B1. The data set is described as follows: exon inclusion enrichment index; higher = more inclusion; WT1 exon 5 minigene, HEK293.
In the case of AGUUUCUUUUGGGAGCUCCAGCACAGUGAAAUGGACAGAACUGCAGAGCAA [G5U G8U C9U G41C G42U], the “exon inclusion enrichment index” value came out at 0.643.
For AGUUUCUUUUGUGAGCUCCAGCACAGUGAAAUGGACAGAAGGGCAGAGCAA [G5U G8U C9U G12U], the “exon inclusion enrichment index” value stood at 0.0166.
With AGUUGCUGCUGGGAGCUCCAGCACAGUGAAAUGGACAGAAGGGCAGUCCAA [A47U G48C], the “exon inclusion enrichment index” value came to 0.106.
Under AGUUUCUUUUGGGAGCUCCAGCACAGUGAAAUGGAGGGAAGGGCAGAGCAA [G5U G8U C9U C36G A37G] stands 0.0302; under AGUUGUAGCUGGGAGCUCCAGCACAGUGAAAUGGACAGAAGGGCAGAGCAA [C6U U7A], 0.0485.
Under AGUUAGGGAUGGGAGCUCCAGCACAGUGAAAAAGACAGAAGGGCAGAGCAA [G5A C6G U7G C9A U32A G33A] stands 0.00102; under AGUUCACACAGGGAGCUUGAGCACAGUGAAAUGGACAGAAGGGCAGAGCAA [G5C C6A U7C G8A U10A C18U C19G], 0.0165.
Under AGUUCGCGCCGGGAGCUCCAGCACAGUGAAAUGGACCGAAGGGCAGAGCAA [G5C C6G U7C U10C A37C] stands 4.16; under AGUUAUAUAUGGGAGCUCCAGCACAGUGAAAUGGACAGAAGGGCAGGACAA [G5A C6U U7A G8U C9A A47G G48A], 0.0214; under AGUUCGCGCCGGGAGCUCCAGCACAGCUAAAUGGACAGAAGGGCAGAGCAA [G5C C6G U7C U10C U27C G28U], 2.8.
Take AGUUCACACAGGGAGCUCCAGCACACUGAAAUGGACAGAAGGGCAGAGCAA [G5C C6A U7C G8A U10A G26C]: the “exon inclusion enrichment index” value was 0.141.
Turning to AGUUAUAUAUGGGAGCUCCAGCCCAGUGAAAUGGACAGAAGGGCAGAGCAA [G5A C6U U7A G8U C9A A23C], the “exon inclusion enrichment index” value is 0.0335.
The same measure for AGUUACCACCGGGAGCUCCAGCACAGUGAAAUGGUAAGAAGGGCAGAGCAA [G5A U7C G8A U10C A35U C36A]: 0.00832.
Under AGUUAUAUAUGGGAGCUCCAGCACAGAAAAAUGGACAGAAGGGCAGAGCAA [G5A C6U U7A G8U C9A U27A G28A] stands 0.065.
Under AGUUGCUGCUGGGAGCUCCAGCACAGUGAAAUGGACAAAAGGGCAGAGCAA [G38A] stands 0.0459; under AGUUCUUCUCGGGAGCUCCAGCACAGUUAAAUGGACAGAAGGGCAGAGCAA [G5C C6U G8C C9U U10C G28U], 0.486; under AGUUAGGGAUGGGAGGGCCAGCACAGUGAAAUGGACAGAAGGGCAGAGCAA [G5A C6G U7G C9A C16G U17G], 0.0104.
Regarding AGUUGAAGAAGUCAGCUCCAGCACAGUGAAAUGGACAGAAGGGCAGAGCAA [C6A U7A C9A U10A G12U G13C], the “exon inclusion enrichment index” value amounted to 1.06.
Under AGUUUCUUUUGGGAGCUCCAGUUCAGUGAAAUGGACAGAAGGGCAGAGCAA [G5U G8U C9U C22U A23U] stands 0.0443; under AGUGGGGGAUGGGAGCUCCAGCACAGUGAAAUGGACAGAAGGGCAGAGCAA [U4G C6G U7G C9A], 0.0187; under AGUUAGGGAUGGGAGCUUGAGCACAGUGAAAUGGACAGAAGGGCAGAGCAA [G5A C6G U7G C9A C18U C19G], 0.00111.
Under AGUUGCUGCUGGGCGCUCCAGCACAGUGAAAUGGACAGAAGGGCAGAGCAA [A14C] stands 0.099; under AGUUAUAUAUGGGAGCUCCAGCACAGUGAAAUGGACAGAGAGGCAGAGCAA [G5A C6U U7A G8U C9A A40G G41A], 0.0181.
The same measure for AGUUCGCGCCGGGAGCUCCAGCACAGUGAAAUGGACAGAGAGGCAGAGCAA [G5C C6G U7C U10C A40G G41A]: 1.99.
As for AGUUAUAUAUGGGAGCUCCAGCACAGUGUAAUGGACAGAAGGGCAGAGCAA [G5A C6U U7A G8U C9A A29U], the “exon inclusion enrichment index” value was found to be 0.0147.
The same measure for AGUUGAAGAAGGGAGCUCCAGCACAGUGAAAUGGACAGAAGGGCGAAGCAA [C6A U7A C9A U10A A45G G46A]: 2.3; for AGUUAGGGAUGGGAGCUCCAGCCUAGUGAAAUGGACAGAAGGGCAGAGCAA [G5A C6G U7G C9A A23C C24U]: 0.00192; for AGUUGAAGAAGGGAGCUCCAACACAGUGAAAUGGACAGAAGGGCAGAGCAA [C6A U7A C9A U10A G21A]: 0.506.
Under AGUUGUAGAAGGGAGCUCCAGCACAGUGAAAUGGACAGAAGGGCAGAGCAA [C6U U7A C9A U10A] stands 0.0567; under AGUUCGCGCCGGGAGCUCCAGCACAGUGAAAUGGACCAAAGGGCAGAGCAA [G5C C6G U7C U10C A37C G38A], 2.71.
The same measure for AGUUGACGACGGACGCUCCAGCACAGUGAAAUGGACAGAAGGGCAGAGCAA [C6A U7C C9A U10C G13A A14C]: 3.39.
For AGUUAGGGAUGGGCGCUCCAGCACAGUGAAAUGGACAGAAGGGCAGAGCAA [G5A C6G U7G C9A A14C], the “exon inclusion enrichment index” value amounted to 0.000759.
The same measure for AGUUGACGACGGGAGCUCUAGCACAGUGAAAUGGACAGAAGGGCAGAGCAA [C6A U7C C9A U10C C19U]: 0.759.
The same measure for AGUUGAAGAAGGGAGCUCCAGGCCAGUGAAAUGGACAGAAGGGCAGAGCAA [C6A U7A C9A U10A C22G A23C]: 0.321.
The same measure for AGUUACCACCGGGAGCUCCAGCACAGUGAAAUGGUCAGAAGGGCAGAGCAA [G5A U7C G8A U10C A35U]: 0.475.
Take AGUUCACACAGGGAGCUCCAGCACAGUGAAAUGGACAGAAGGGCGUAGCAA [G5C C6A U7C G8A U10A A45G G46U]: the “exon inclusion enrichment index” value was determined as 0.0847.
Under AGUUGCUGCUGGGAGCUCCAGCACAGUCAAAUGGACAGAAGGGCAGAGCAA [G28C] stands 0.104; under AGUUCGCGCCGGGAGCGACAGCACAGUGAAAUGGACAGAAGGGCAGAGCAA [G5C C6G U7C U10C U17G C18A], 3.39.
Under AGUUCUUCUCGGGAGCUCCAGCACUCUGAAAUGGACAGAAGGGCAGAGCAA [G5C C6U G8C C9U U10C A25U G26C] stands 2.38; under AGUUAGGGAUGGGAGCUCGCGCACAGUGAAAUGGACAGAAGGGCAGAGCAA [G5A C6G U7G C9A C19G A20C], 0.00232.
Turning to AGUUGAAGAAGGGAGCUGUAGCACAGUGAAAUGGACAGAAGGGCAGAGCAA [C6A U7A C9A U10A C18G C19U], the “exon inclusion enrichment index” value stood at 0.076.
Under AGUUUCUUUUGGGAGCUCCAGCACAGUGAAAUGGACUAAAGGGCAGAGCAA [G5U G8U C9U A37U G38A] stands 0.0389; under AGUUACCACCGAAAGCUCCAGCACAGUGAAAUGGACAGAAGGGCAGAGCAA [G5A U7C G8A U10C G12A G13A], 0.689; under AGUUCGCGCCUGGAGCUCCAGCACAGUGAAAUGGACAGAAGGGCAGAGCAA [G5C C6G U7C U10C G11U], 3.33.
The same measure for AGUGGACACAGGGAGCUCCAGCACAGUGAAAUGGACAGAAGGGCAGAGCAA [U4G C6A U7C G8A U10A]: 0.348.
Under AGUUCCGCUCGGGAGCUCCAGCACAGUGAAAUGGACAGAAGGGCAGAGCAA [G5C U7G G8C C9U U10C] stands 0.323.
Regarding AGUUUCUUUUGGGAGCUCCAGCACAGUGAAAUCCACAGAAGGGCAGAGCAA [G5U G8U C9U G33C G34C], the “exon inclusion enrichment index” value is 0.0648.
For the variant AGUUUCUUUUGGGAGCUCCAGCACAGUGAAAUGGACAGCAGGGCAGAGCAA [G5U G8U C9U A39C], the “exon inclusion enrichment index” value was 0.0249.
The same measure for AGUUCUUCUCGGGAGCUCCAGUCCAGUGAAAUGGACAGAAGGGCAGAGCAA [G5C C6U G8C C9U U10C C22U A23C]: 1.22; for AGUUACCACCGGGGGCUCCAGCACAGUGAAAUGGACAGAAGGGCAGAGCAA [G5A U7C G8A U10C A14G]: 1.38.
Under AGUUGACGACGGGAGCUCCGCCACAGUGAAAUGGACAGAAGGGCAGAGCAA [C6A U7C C9A U10C A20G G21C] stands 3.34.
